Data as given in paper PMC7527733.

Key:
[1] = target: Elizabethkingia anophelis strain AG1 short CDC-like protein (CDCL^S) (Elizabethkingia anophelis strain AG1); test: […]) in 20 mM HEPES (pH 7), 150 mM NaCl, […] (55:45) […]
[2] = target: Elizabethkingia anophelis strain AG1 CDC-like protein (CDCL) (Elizabethkingia anophelis strain AG1); test: SDS-agarose gel electrophoresis (SDS-AGE)

Substance | stoichiometry N [1] [monomers] | stoichiometry N [2]
Elizabethkingia anophelis strain AG1 short CDC-like protein (CDCL^S) (natural protein) | 28 | 
Elizabethkingia anophelis strain AG1 CDC-like protein (CDCL) (natural protein) |  | 2
